{"source": "the nanobody polyreactivity screen of Harvey et al. (2022)", "data": [{"assay": "yeast display, Sf9 membrane polyspecificity reagent, FACS + sequencing; frameworks hold sequencing errors", "in_short": "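Polyreactivity labels are assigned by the sorting gate from which each nanobody was recovered. The gates were low and high (top ~1%), set on anti-HA fluorescence for expression and streptavidin fluorescence for reagent binding. Before sorting, galactose-induced (36–48 hours) yeast display cells were stained for 1 hour at 4 °C with 10% biotinylated, detergent-solubilized Sf9 membrane reagent.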", "values": [{"sequence": "QVQIVESGGGLVQAGGSLRLSCAASGRIFYKNAMGWYRQAPGKERELVAAISNVGSTYYADSVKGRFTISRDNAKTTVYLQMNSLKPEDTAVYYCNKRIYHLFTYDFWGQGTQVTVSS", "polyreactivity (PSR sort gate)": "high polyreactivity"}, {"sequence": "QVQIVESGGGLVQAGGSLRLSCAASGRILWFYAMGWYRHAPGKERELVAAITDSGGSTYYADSVKGRFTISRDNAKNPVYLQMNSLKPEDTAVYYCAADGDRYISGGGLAHYDYWGQGTQVNVSS", "polyreactivity (PSR sort gate)": "low polyreactivity"}, {"sequence": "QVQIVESGGGLVQAGGSLRLSCAASGRTFRANAMGWYRQAPGKERELVAAIRTGTRTYYADSVKGRFTISRDNANNTVYFQMNSLKTVDSAVYYCAARYYHPYSHGYWQERDYWGQGTKVTVSS", "polyreactivity (PSR sort gate)": "high polyreactivity"}, {"sequence": "QVQIVESGGGLVQAGGSLRLSCAASGRTFYFYVMGWYRQAPGKERELVAAISWSGTSTYYADSVKGRFTISRDNAKNTVYLQMNSLKPEDTAVYYCNGITRYDYWGQGTQVTVSS", "polyreactivity (PSR sort gate)": "low polyreactivity"}, {"sequence": "QVQIVESGGGLVQAGGSLRLSCAASGRTFYLNAMGWYRQAPGKERELVAANRFSGGSTYYADSVKGRFTISRDNAQNTVYLQMNSLKPEDTAVYYCIAGADHALYPTVSEYGYWGQGTQVTVSS", "polyreactivity (PSR sort gate)": "low polyreactivity"}, {"sequence": "QVQIVESGGGLVQAGGSLRLSCAASGSIFARMAMGWYRQAPGKEWELVAAITTGGITNYADSLKGLFTISRDNAKNTVYLQMNSLKPDDTAVYYCAATSWRYQQSTRYKGRRYYSWGQGTQVTVSS", "polyreactivity (PSR sort gate)": "high polyreactivity"}, {"sequence": "QVQIVESGGGLVQAGGSLRLSCAASGSIFQGNPMGWYRQAPWKEREFVAAISWSGDSTYYADSVKGRFTISRDNAKYSVYLQMNSLKTEDTAVYYCGADPWDIYRRLSPGDHDYWGQCTQVTVSS", "polyreactivity (PSR sort gate)": "low polyreactivity"}, {"sequence": "QVQIVESGGGLVQAGGSLRLSCAASGSIFQGYAMGWYRQAPGKERELVAAITNRGGNTYYADSVKGRFTISRDNAKYSVYLQMNSLKPEDTAVYYCAADPRYSHSFSGYYDYWGQGTQVTVSS", "polyreactivity (PSR sort gate)": "high polyreactivity"}, {"sequence": "QVQIVESGGGLVQAGGSLRLSCAASGSIFSRNVMGWYRQAPGKERELVAAISRSGGRTYYADSVKGRFTISRDYAKNTVYLQMNSLKPEDTAVYYCNRDIGGTSVLDDYWGQGTQVTVSS", "polyreactivity (PSR sort gate)": "low polyreactivity"}, {"sequence": "QVQIVESGGGLVQAGGSLRLSCAASGSIFVWYAMGWYRQAPGKERELVARITSGGRTNYADSVKGRFTISRDNAKNTVYLQMNSLKPEDTAVYYCAAGRVSWSPYYYWGQGTQVTVSS", "polyreactivity (PSR sort gate)": "high polyreactivity"}, {"sequence": "QVQIVESGGGLVQAGGSLRLSCAASGSIFYRYAMGWYRQAPGKERQLVAAISSGGTTSYADSVKGRFTISRDNAKNTVYLQMNSLKPEDTAVYYCAAFAYGYRYKTYDYWGQGTQVTVSS", "polyreactivity (PSR sort gate)": "high polyreactivity"}, {"sequence": "QVQIVESGGGLVQAGGSLRLSCAASGSTFDGNAMGWYRQAPGKERELVATINSDDSKNYSDSVKGSFTISRDNAKNTVYLQMNSLKPEDTAVYYCAAVVSVPELYDYWGQGTQVTVSS", "polyreactivity (PSR sort gate)": "low polyreactivity"}, {"sequence": "QVQIVESGGGLVQAGGSLRLSCAASGSTFFANTMGWYRQAPGKERELVAAISWSSVRTYYADSVKGRFTISRDHAKNTVYLQMNSLKPEDTAVYYCAAYSRFRYDYWGQGTQVTVSS", "polyreactivity (PSR sort gate)": "high polyreactivity"}, {"sequence": "QVQIVESGGGLVQAGGSLRLSCAASGSTFGGNAMGWYRQAPGKERELVASITSSGGSTYYADSVKGRFTISRDNAKNTVYLQMNSLKPEDTAVYYCAAGKWYRSPWKYDYWGQGTQVTVSS", "polyreactivity (PSR sort gate)": "low polyreactivity"}, {"sequence": "QVQIVESGGGLVQAGGSLRLSCAASGSTFKWYAMGWYRQSTGKERQLVAAITSTDSTTYADSLKGRFTISRDNAKNTVYLHMNSLKPEDTAVYYCNRLYYHWYGGLDYWGLGTQVTVSS", "polyreactivity (PSR sort gate)": "high polyreactivity"}, {"sequence": "QVQIVESGGGLVQAGGSLRLSCAASGSTFLSNAMGWYRQAPGKERELVATISFSGATYADSVKGRFTIARDNAKNTVYLQMNSLKPEDTAVYYCNRATLNYSGKGDTAYDYWGQGTQVTVSS", "polyreactivity (PSR sort gate)": "low polyreactivity"}, {"sequence": "QVQIVESGGGLVQAGGSLRLSCAASGSTFSVYAMGWYRQAPGKDRELVVAIRSSGGSTYYAHSVKGRFTISRDNAKNTVYLQMNSLKPEDTAVYYCATRIIVGSYRYDYWGQATQVTVSS", "polyreactivity (PSR sort gate)": "low polyreactivity"}, {"sequence": "QVQIVESGGGLVQAGGSLRLSCAASGSTFWYNAMGWYRQAPGKERELVAAITWTGDGTYYADSVKGRFTISRDNAKNTVYLQMNSLKPEDTAVYYCAAAYFQWSTSIVGLDAGYDYWGQGTQVNVSS", "polyreactivity (PSR sort gate)": "low polyreactivity"}, {"sequence": "QVQIVESGGGLVQAGGSLRLSCAASGSTFYRNAMGWYRQAPGKERELVAAIRWTGGNTYYADSVKGRFTISRDNAKNTVYLQMNSLKPEDTAVYYCAARSPLYGHGYWGQGTQVTVSS", "polyreactivity (PSR sort gate)": "high polyreactivity"}, {"sequence": "QVQIVESGGGLVQAGGSLRLSCAASGSTVQYYAMGWYRQAPGKERELVAAISYTGGSTYYADSVKARFTISRDNAKNSVYLEMSSLKPEDTAVYYCAAGRRGSDTGTEYYWGQGTQVTVSS", "polyreactivity (PSR sort gate)": "high polyreactivity"}, {"sequence": "QVQIVESGGGLVQAGGSLRLSCAASGSTYDHYTLGWYRQAPGKERELVAAINRIADSTYYADSVKGRFTNSRDNQKNTVYVQMTSLNPEDTAVYYCAARQFVYSSRIILYDYWGHGTQVTVSS", "polyreactivity (PSR sort gate)": "high polyreactivity"}, {"sequence": "QVQIVESGGGLVQAGGSLRLSCAASGTFARYAMGWYRQAPRKERELVAAITRRGGNTYYADSVKGRFSISRDNAKNTVYLPMNSQKPEDTAVYYCAILGEDTNGYWGQGTQVTVSS", "polyreactivity (PSR sort gate)": "high polyreactivity"}, {"sequence": "QVQIVESGGGLVQAGGSLRLSCAASGYIFIVYTMGWYRQAPGKERELVAAISSGGITDYADSVKGRFTLSRDNAKNTLYIQMTRLKPEDTAVYYWGQGTQVTVSS", "polyreactivity (PSR sort gate)": "low polyreactivity"}, {"sequence": "QVQIVESGGGLVQAGGSLRLSCAASVRTFGRYVMGWYRQAPGKERELVAAISSGGRTYYADSVKGRFTISRDNAKNTVYLQMNSLKPEDNAVYYCAVYVAYLYSYYYWGQGTQVTVSS", "polyreactivity (PSR sort gate)": "low polyreactivity"}, {"sequence": "QVQIVESGGGLVQAGGSLRLSCAPSGRIYGPYAIGLYRQEPGKERELDAAIRSGGSTNYADSVKGRFTISRDNAKNTVYLQMNSLNPEDTAVYYCNAVRHTYGYYSWGQGTQVTVSS", "polyreactivity (PSR sort gate)": "high polyreactivity"}, {"sequence": "QVQIVESGGGLVQAGGSLRLSCASSGSTMPAYTMGWYRQAPGKERELVADISRRGGSTYYADSVKGRFTISRDNAKNNVYLHMNSLKPEDTPVYYCATTAKKSYDYWGQGTHVTVSS", "polyreactivity (PSR sort gate)": "high polyreactivity"}, {"sequence": "QVQIVESGGGLVQAGGSLRLSCPASGLTFAWYAMGWYRQAPWTERELVAAINRSGGSTSYADSVKGRFTISRDNAMNTVYLQMNSLKPEDTAVYYCAAQLGYTTLGLIYWGQGTQVTVSS", "polyreactivity (PSR sort gate)": "low polyreactivity"}, {"sequence": "QVQIVESGGGLVQAGGSLSLSCASSGSTIGDYAMGWYRQAPGKERELVAAINSGDSKNYADSVKGRFTISRDNAKNTVYLQMNSLKPEDTAVYYCAAEPLSISYVYYKYKYEYWGQGTQVTVSS", "polyreactivity (PSR sort gate)": "low polyreactivity"}, {"sequence": "QVQIVESGGGLVQAVGSLRLSCAAYGSTFCANAMGCYRQAPGKERELVAAIRGTGGSTYADSVKGRFTISRDNAKNTVYLQMNSLKPEDTAVYYCNAKGRGWTAQYDYCGQGTQVTVSS", "polyreactivity (PSR sort gate)": "low polyreactivity"}, {"sequence": "QVQIVESGGRLVQAGCSLRLSCAASGRIFTRYAMGWYRQAPGKERELVASIRHSGGSTYYADSVKGRFTISRDNAKNTVYLQMNSLKPEDTAVYYCAARGKKGTRYNYNYWGHGTQVTVSS", "polyreactivity (PSR sort gate)": "high polyreactivity"}, {"sequence": "QVQIVESGGVLVQAGGSLRLRCAASGSTFNRYAMGWYRQAPGKERELVASITTSDSTNYADSVKGRFTISRDNAQNTVYLQMNRLKPEDTALYYCNAEVRGVWYTYDYWGQGTQVTVSS", "polyreactivity (PSR sort gate)": "low polyreactivity"}, {"sequence": "QVQIVESGGVLVQPGGILRLSCAASGFTFDAYDMGWYRQAPGKERELVAANSWRGIDTTYADSVKWRFTISRDNAKNPVFLQMNSLKPEDTAVYYCAEFVSDATVGTSKGLDYWGQGTQVTVSS", "polyreactivity (PSR sort gate)": "low polyreactivity"}]}]}
